Results from the supplement of paper PMC10724198.
± gives the standard deviation of the averaged measurements.

Test system: Saccharomyces cerevisiae
Assay: protein stability index of tFT-peptide fusion (C-terminal peptide) (PSI (0-1 scale)); higher = more stable (slower turnover)
Conditions: genetic background: wild type; temperature: 30 C
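Note: PSI is a weighted mean of sequencing reads over stability bins, variants kept only with over 10 reads, mCherry proximal and sfGFP distal, peptide attached via GGGS linker.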

Row | Sequence | protein stability index
1 | GKRKEAVLRMMI | 0.6213 ± 0.0017
2 | SPLLPFPLPPSI | 0.718 ± 0.018
3 | PPPVPPLGPSRA | 0.693 ± 0.044
4 | RDSDSSLRHNSH | 0.682 ± 0.061
5 | PFSTVDLATAYP | 0.712 ± 0.017
6 | VVRQADVLLGLV | 0.662 ± 0.019
7 | PPPPPPVPSRPL | 0.644 ± 0.046
8 | SFVGPFCLTLSI | 0.596 ± 0.092
9 | PPPPSPALPTFP | 0.715 ± 0.049
10 | PRPALRPLPVYP | 0.612 ± 0.068
11 | HFAAVFATSISG | 0.675 ± 0.02
12 | VGGRRCVCVWWL | 0.674 ± 0.016
13 | WYRIPGASHGPP | 0.662 ± 0.034
14 | GGSRRANRQMRK | 0.7148 ± 0.0045
15 | RRSDTTQQSVSL | 0.623 ± 0.077
16 | DGGKRKQDSQKK | 0.683 ± 0.034
17 | SLLRPPHASFSS | 0.688 ± 0.044
18 | SSSCRPVSSAIV | 0.651 ± 0.089
19 | SIVIGGSWGRSW | 0.711 ± 0.052
20 | ESRGLVRRLGTG | 0.693 ± 0.058
21 | RCAWSEVFEGCG | 0.71 ± 0.021
22 | VLTGQQSVFGAK | 0.752 ± 0.096
23 | EGRMEAGVEGNS | 0.657 ± 0.053
24 | QNEVWDACVGRC | 0.702 ± 0.017
25 | PPPPPPGSPTRP | 0.788 ± 0.075

Row | Sequence | protein stability index
26 | VVVGQGPLRGGA | 0.714 ± 0.021
27 | LMGASAAFIKKG | 0.601 ± 0.067
28 | PSAPPLSHPAPW | 0.675 ± 0.047
29 | GVVRLYYLRIGR | 0.652 ± 0.11
30 | LGRGRGGCLGEL | 0.5915 ± 0.0034
31 | RWRRGGRRAPWP | 0.62 ± 0.012
32 | PRPPPPSPIPPL | 0.7265 ± 0.0018
33 | AQAEGLYRGTAD | 0.657 ± 0.011
34 | RKKKNQKHKKKN | 0.705 ± 0.026
35 | LSPPPLPPVPSP | 0.712 ± 0.015
36 | WVGGGLVVFGWK | 0.6944 ± 0.0025
37 | SVIFSRSFCCPS | 0.639 ± 0.11
38 | TLVLQFGRKRFG | 0.629 ± 0.013
39 | GSTSSSFPVSIR | 0.727 ± 0.045
40 | VCLGAWGEGGRG | 0.664 ± 0.071
41 | CIGVGTVRGSHG | 0.673 ± 0.067
42 | PRRPPSSLWPYP | 0.669 ± 0.044
43 | SRAIEPSEFSVA | 0.715 ± 0.055
44 | RLASPSIISSTL | 0.702 ± 0.0076
45 | PSSAQKNPNPNT | 0.701 ± 0.073
46 | PAFCLTRAPSTQ | 0.72 ± 0.071
47 | VCGECGWRRVCL | 0.734 ± 0.028
48 | SDVHGLSLSDVS | 0.632 ± 0.085
49 | IFRERWGCFEAI | 0.763 ± 0.13
50 | LRWGLFSLAWVT | 0.5437 ± 0.00065

Row | Sequence | protein stability index
51 | KKKKKKKNKKQE | 0.7456 ± 0.005
52 | LPSPPVSIPYPS | 0.671 ± 0.029
53 | GSGRNMHLRGSL | 0.65 ± 0.019
54 | SIVAWGWPAASE | 0.85 ± 0.19
55 | SSSYCHPSCVSC | 0.661 ± 0.14
56 | DSMGKVLLTCAN | 0.581 ± 0.0094
57 | PPSFDPSPPSSL | 0.696 ± 0.042
58 | QHTHNRLRAAQD | 0.678 ± 0.029
59 | FPFDMTSTEMSL | 0.639 ± 0.096
60 | PATKQFLLRGGR | 0.713 ± 0.0079
61 | FEVAPAPLDQVV | 0.653 ± 0.028
62 | GRVQARGRPGLD | 0.632 ± 0.045
63 | EVRDLSQFMKRY | 0.727 ± 0.0092
64 | CRPVHVNLPFYF | 0.5884 ± 0.00092
65 | EMYEKLKSYIVK | 0.685 ± 0.013
66 | PSLSSHPALLFI | 0.752 ± 0.038
67 | YDFHWAYFHSLY | 0.7113 ± 0.0035
68 | RPPFSPPSDLPL | 0.645 ± 0.025
69 | PCLLANFFFFPA | 0.653 ± 0.09
70 | DPPDPASIHLSF | 0.752 ± 0.0096
71 | TRGMDYWLFTGD | 0.706 ± 0.0031
72 | FSTIWDRLLLTG | 0.668 ± 0.083
73 | RDGIMTDDKRIS | 0.707 ± 0.035
74 | KLNKKKKITIRI | 0.589 ± 0.025
75 | IKKLNTYIKRNV | 0.586 ± 0.025

Row | Sequence | protein stability index
76 | ITNQVIRLSLSN | 0.732 ± 0.083
77 | LGRNTVIGLCLE | 0.642 ± 0.1
78 | LSVSSLMFNWRS | 0.707 ± 0.02
79 | GWFRDCEWGASS | 0.712 ± 0.061
80 | RHYKNKGQTRVR | 0.699 ± 0.051
81 | PLPPPPPPPPRL | 0.678 ± 0.0073
82 | RQTTTPHDRDGR | 0.566 ± 0.049
83 | PAVPPGGDPTCP | 0.689 ± 0.0085
84 | QLNGTVTRPGDF | 0.7 ± 0.036
85 | ARIWLGSTSVSR | 0.739 ± 0.14
86 | LAPPPAAPRFCL | 0.652 ± 0.008
87 | EAEKTERCVIKG | 0.645 ± 0.027
88 | QESGPEAGIPPL | 0.7222 ± 0.003
89 | LYWAYLGASVLL | 0.658 ± 0.013
90 | PPPPLPPLSPSP | 0.7604 ± 0.0068
91 | TVCGTLISFVEG | 0.694 ± 0.028
92 | VAWAQPSGSKAC | 0.697 ± 0.046
93 | RLFRRSPTPALR | 0.8 ± 0.067
94 | MFTFIQRPVAQV | 0.6357 ± 0.0054
95 | RVGWCGGWRGGR | 0.677 ± 0.059
96 | PPSPPHIHTYLT | 0.6939 ± 0.0011
97 | EGASLRWARLRI | 0.679 ± 0.037
98 | TVIWNSLRNCKF | 0.819 ± 0.15
99 | SYGIETRLKGKK | 0.63 ± 0.082
100 | VNTPGVDSDPVA | 0.661 ± 0.11

Row | Sequence | protein stability index
101 | KLTKAQPRMPLL | 0.702 ± 0.027
102 | SHFPPPSTPPVL | 0.713 ± 0.015
103 | GERSGVSIRHEG | 0.726 ± 0.016
104 | PPTPRLPPPRLP | 0.67 ± 0.045
105 | EDIIRPWSMFQE | 0.718 ± 0.043
106 | SGCCCGSDVYIG | 0.6905 ± 0.0055
107 | PAPFPAPPTHGP | 0.7165 ± 0.0061
108 | EISPQGAKWQEG | 0.655 ± 0.048
109 | FVGAEWLLFYFS | 0.677 ± 0.069
110 | PPAPPPPSTPHP | 0.672 ± 0.13
111 | SAPVPPSPPRPR | 0.8 ± 0.0089
112 | FLVFRFPFGFSC | 0.566 ± 0.025
113 | RLGYSWGECPGG | 0.699 ± 0.012
114 | PPHFPPRPRPGP | 0.685 ± 0.015
115 | GPGTSSSGLVFT | 0.692 ± 0.029
116 | YSLASRVVNFCA | 0.497 ± 0.012
117 | HLHAPSPPTLTL | 0.682 ± 0.013
118 | GGEGPKGDRGRA | 0.649 ± 0.018
119 | IRAGRGPARVVP | 0.707 ± 0.058
120 | VPVGSWVGIGGK | 0.692 ± 0.043
121 | NRLVQNRQVQLY | 0.682 ± 0.014
122 | PPTQSRLPLPLL | 0.674 ± 0.033
123 | LMYPGTSPLSPH | 0.711 ± 0.092
124 | VSRPPPRNPTPP | 0.728 ± 0.078
125 | PPPPPSHPPPLS | 0.571 ± 0.0097

Row | Sequence | protein stability index
126 | PPPTHRDPLPTP | 0.684 ± 0.048
127 | KKKKKKKKQNQK | 0.7 ± 0.03
128 | PPPPSLPPPLPF | 0.7844 ± 0.0011
129 | PPPPSAPPLPLP | 0.61 ± 0.018
130 | LGTETASSGFSG | 0.691 ± 0.029
131 | RSPPYRPPCLRP | 0.722 ± 0.02
132 | RVKNVDAVKKHK | 0.635 ± 0.0088
133 | ECFRWQRRLHYD | 0.533 ± 0.024
134 | QSPPILVPSSDV | 0.686 ± 0.067
135 | TPMEKRQDANIN | 0.691 ± 0.015
136 | GGGWCESRGDGA | 0.655 ± 0.085
137 | GPPTASPLVAPA | 0.621 ± 0.02
138 | GGVLDGVGVRMG | 0.69 ± 0.054
139 | IVLRRRKVTRRI | 0.68 ± 0.043
140 | AFYGDNNTVERM | 0.762 ± 0.053
141 | GRRGCSGGLKGL | 0.675 ± 0.039
142 | LRPLPPRHPPAP | 0.624 ± 0.069
143 | SRRGARRHVRLK | 0.6757 ± 0.00074
144 | HDVGEYVKKNRF | 0.653 ± 0.011
145 | HSGGRVYSYACI | 0.6851 ± 0.0017
146 | QYSFFLRSPEVF | 0.512 ± 0.038
